Measured values published in PMC8355326.

How the values were obtained:
Assay in all cases: cryo-EM structure
[1] = target: BG505 SOSIP MD39 (HIV (BG505 genotype, clade A))
[2] = target: BG505 SOSIP.v5.2 N241/N289 (HIV (BG505 genotype, clade A))
[3] = target: BG505 SOSIP.v5.2(7S) N241/N289 (HIV (BG505 genotype, clade A))

BG505 SOSIP MD39 (domain or fragment)
stoichiometry N [1]: 3

BG505 SOSIP.v5.2 N241/N289 (domain or fragment)
stoichiometry N [2]: 3

BG505 SOSIP.v5.2(7S) N241/N289 (domain or fragment)
stoichiometry N [3]: 3
